One may read the Kd as the constant that tells how readily two partners part at equilibrium. What is called koff is the first-order rate constant of dissociation. One may read the kon as the second-order rate constant of association.

Changes are numbered by the printed parent chain.

The labels stand for the following.
B1: E008.1 (VHH)
VHH: EVQLVESGGGLVQPGGSLRLSCAASGLPLLDYAIGWFRQAPGKEREAVSAISISEGSTYYTDSVRGRFTISRDNSKNTVYLQMNSLRAEDTAVYYCAADKTDIGFWLLVGGAGGGEVRYEYWGQGTQVTVSS
notes: Humanized VHH; also called humanized variant of E008
B2: E008.10 (VHH)
VHH: B1 VHH with A24S, T78K, Q82R
notes: as for B1
B3: E008.6 (VHH)
VHH: B1 VHH with S75N, T78K
notes: as for B1
B4: E008.5 (VHH)
VHH: B1 VHH with T78K
notes: as for B1
B5: E008.2 (VHH)
VHH: B1 VHH with T78K, V79L
notes: as for B1
B6: E008.9 (VHH)
VHH: B1 VHH with R45L, S75N, T78K
notes: as for B1
B7: E008.4 (VHH)
VHH: B1 VHH with S75N
notes: as for B1
B8: E008.3 (VHH)
VHH: B1 VHH with Q82R
notes: as for B1
B9: E006.1 (VHH)
VHH: EVQLVESGGGLVQPGGSLRLSCAASGFTFDTYTTSWERQAPGKEREMVAVLATTGGKPYYVESVKGRFTISRDNSKNTVYLQMNSLRAEDTAVYYCKATSRSPVNPHNYSGQGTLVTVSS
notes: Humanized VHH; also called humanized variant of E006
B10: E006.8 (VHH)
VHH: B9 VHH with A23T, A49S, N74A, K76E, T78A, Y80T
notes: as for B9
B11: E006.2 (VHH)
VHH: B9 VHH with N74A
notes: as for B9
B12: E006.4 (VHH)
VHH: B9 VHH with N74A, K76E, T78A
notes: as for B9
B13: E006.7 (VHH)
VHH: B9 VHH with A49S, N74A, K76E, T78A
notes: as for B9
B14: E006.5 (VHH)
VHH: B9 VHH with N74A, K76E, T78A, S85N
notes: as for B9
B15: E006.6 (VHH)
VHH: B9 VHH with N74A, K76E, T78A, Y80T, S85N
notes: as for B9
B16: E006.3 (VHH)
VHH: B9 VHH with N74A, K76E
notes: as for B9
B17: E002.1 (VHH)
VHH: EVQLVESGGGLVQPGGSLRLSCAASGFTFSDYAVSWYRQAPGKEREFVSRITGTGETSRYEDSVKGRFTISRDNSKNTAYLQMNSLRAEDTAVYYCSIYHPPRDYWGQGTQVTVSS
notes: Humanized VHH; also called humanized variant of E002
B18: E002.6 (VHH)
VHH: B17 VHH with S49A, T69A
notes: as for B17
B19: E002.5 (VHH)
VHH: B17 VHH with S49A, S75V
notes: as for B17
B20: E002.2 (VHH)
VHH: B17 VHH with S75V
notes: as for B17
B21: E002.4 (VHH)
VHH: B17 VHH with S49A
notes: as for B17
B22: E002.7 (VHH)
VHH: B17 VHH with S49A, T69A, S75V
notes: as for B17
B23: E005.1 (VHH)
VHH: QVQLVESGGGLVKPGGSLRLSCAASGFAFSDYTMRWHRQAAGKELELVSYITSAGDIIKYANSVRGRFTISRDNAKNTLYLQMNSLRAEDTAVYRCNALVSASVRASDYWGQGTLVTVSS
notes: Humanized VHH; also called humanized variant of E005
B24: E005.2 (VHH)
VHH: B23 VHH with S49A, T78S
notes: as for B23
B25: E005.5 (VHH)
VHH: B23 VHH with A41P, S49A
notes: as for B23
B26: E005.8 (VHH)
VHH: B23 VHH with A23E, S49A
notes: as for B23
B27: E005.3 (VHH)
VHH: B23 VHH with S49A
notes: as for B23
B28: E005.7 (VHH)
VHH: B23 VHH with A41P, S49A, T78S
notes: as for B23
B29: E005.4 (VHH)
VHH: B23 VHH with A41P, T78S
notes: as for B23
B30: E005.6 (VHH)
VHH: B23 VHH with S49A, T52S
notes: as for B23

In this assay the target is T1, human EGFR.His antigen (Acro, Cat #EGR-H522a) (human, UniProt P00533 25-645).
T1 construct: extracellular domain; Bought protein; also called EGFR his tag protein; full-length EGFR extracellular domain protein; not shown: His tag
As to the kind of experiment: SPR, human EGFR.His. In general terms: SPR reads the build-up and loss of mass on a sensor chip optically.
In turn, B1 yielded a Kd of 18 nM, a koff of 0.0087 s⁻¹ and a kon of 480000 M⁻¹ s⁻¹.

For the molecule B2, the equilibrium dissociation constant (Kd) was determined as 82 nM, the koff worked out at 0.029 s⁻¹ and the kon was found to be 360000 M⁻¹ s⁻¹.

In turn, B3 had a Kd of 32 nM, a koff of 0.013 s⁻¹ and a kon of 430000 M⁻¹ s⁻¹.

B4: the Kd is 24 nM, the koff was found to be 0.012 s⁻¹ and the kon came out at 510000 M⁻¹ s⁻¹.

The molecule B5 came in with a Kd of 40 nM, a koff of 0.021 s⁻¹ and a kon of 540000 M⁻¹ s⁻¹.

Take B6: the Kd is 25 nM, the koff worked out at 0.012 s⁻¹ and the kon amounted to 490000 M⁻¹ s⁻¹.

B7: the Kd is 21 nM, the koff was found to be 0.0093 s⁻¹ and the kon came out at 450000 M⁻¹ s⁻¹.

Turning to B8, binding was put at a Kd of 5.8 nM, the koff turned out to be 0.028 s⁻¹ and the kon was 4.9e+06 M⁻¹ s⁻¹.

Consider B9, for which the Kd stood at 39 nM, the koff was 0.00079 s⁻¹ and the kon came out at 20000 M⁻¹ s⁻¹.

Take B10: the Kd worked out at 15 nM, the koff came to 0.0004 s⁻¹ and the kon amounted to 27000 M⁻¹ s⁻¹.

On to B11, for which the Kd stood at 41 nM, the koff stood at 0.00072 s⁻¹ and the kon is 17000 M⁻¹ s⁻¹.

B12 came in with a Kd of 13 nM, a koff of 0.00032 s⁻¹ and a kon of 25000 M⁻¹ s⁻¹.

The molecule B13 yielded a Kd of 14 nM, a koff of 0.00033 s⁻¹ and a kon of 24000 M⁻¹ s⁻¹.

For the molecule B14, the Kd amounted to 13 nM, the koff turned out to be 0.00031 s⁻¹ and the kon was found to be 24000 M⁻¹ s⁻¹.

The molecule B15 gave a Kd of 11 nM, a koff of 0.00032 s⁻¹ and an on-rate constant (kon) of 29000 M⁻¹ s⁻¹.

Take B16: binding was put at a Kd of 18 nM, the koff worked out at 0.0004 s⁻¹ and the kon amounted to 22000 M⁻¹ s⁻¹.

B17 came in with a Kd of 5 nM, a koff of 0.00039 s⁻¹ and a kon of 78000 M⁻¹ s⁻¹.

On to B18, for which binding was put at a Kd of 9.4 nM, the koff was found to be 0.00038 s⁻¹ and the kon was 40000 M⁻¹ s⁻¹.

For the molecule B19, the Kd was 13 nM, the koff was found to be 0.00055 s⁻¹ and the kon is 43000 M⁻¹ s⁻¹.

Consider B20, for which the Kd is 5.1 nM, the koff came out at 0.00068 s⁻¹ and the kon amounted to 130000 M⁻¹ s⁻¹.

Consider B21, for which the Kd was 11 nM, the koff worked out at 0.00045 s⁻¹ and the kon was determined as 43000 M⁻¹ s⁻¹.

B22: the Kd was 11 nM, the koff is 0.00046 s⁻¹ and the on-rate constant (kon) was 40000 M⁻¹ s⁻¹.

Take B23: binding was put at a Kd of 3.3 nM, the koff was 3.5e-05 s⁻¹ and the kon amounted to 11000 M⁻¹ s⁻¹.

For B24, the Kd is 1.2 nM, the koff was determined as 2.1e-05 s⁻¹ and the on-rate (kon) came to 18000 M⁻¹ s⁻¹.

As for B25, the Kd was found to be 0.74 nM, the koff was 1.1e-05 s⁻¹ and the association rate constant (kon) is 15000 M⁻¹ s⁻¹.

Consider B26, for which binding was put at a Kd of 2.1 nM, the koff turned out to be 2.7e-05 s⁻¹ and the kon worked out at 13000 M⁻¹ s⁻¹.

B27 came in with a Kd of 2.7 nM, a koff of 1.7e-05 s⁻¹ and a kon of 6100 M⁻¹ s⁻¹.

For B28, binding was characterised by a dissociation constant (Kd) of 0.71 nM, the koff was 2.5e-06 s⁻¹ and the kon was found to be 3500 M⁻¹ s⁻¹.

Turning to B29, binding was put at a Kd of 4.8 nM, the koff stood at 9.6e-06 s⁻¹ and the kon was found to be 2000 M⁻¹ s⁻¹.

Turning to B30, the affinity, expressed as Kd, was 2.5 nM; the off-rate (koff) came to 4.1e-05 s⁻¹; the kon was 16000 M⁻¹ s⁻¹.
